Results: US20210388097A1 (SORRENTO THERAPEUTICS, published 2021)

Target: T1, human APRIL protein (R&D Systems, catalog #5860-AP-010/CF) (human, UniProt O75888 105-250, limits assumed)
T1 construct: Bought protein; also called human APRIL protein from R&D Systems; TNF13
T1 sequence (looked up): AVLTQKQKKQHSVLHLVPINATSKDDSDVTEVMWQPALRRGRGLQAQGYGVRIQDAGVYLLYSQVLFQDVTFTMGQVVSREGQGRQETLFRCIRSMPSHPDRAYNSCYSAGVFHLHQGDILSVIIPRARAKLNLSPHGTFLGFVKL
Assay: bio-layer interferometry, APRIL on AR2G sensor, BCMA-mouse Fc in solution
Protocol: Bio-layer interferometry was also used to measure binding between APRIL protein, and wild type or mutant BCMA proteins. Human APRIL protein (R&D Systems, catalog #5860-AP-010/CF) was loaded onto an Ar2G sensor (OctetRET96e) and reacted with 2.5 μg/mL of one of three types of human BCMA proteins including: wild type human BCMA-mouse Fc (SEQ ID NO:5), mutant-1 human BCMA-mouse Fc (17G-18G; SEQ ID NO:6), or mutant-2 human BCMA-mouse Fc (de132-35G; SEQ ID NO:7).

binding result: no binding (tested: 2.5 µg/mL)
B1: Mutant-1 human BCMA protein-mouse Fc (Fc fusion)
chain: MLQMAGQCSQNEYFDSGGHACIPCQLRCSSNTPPLTCQRYCNASVTNSVKGTNAGLGGLVDYKDDDDKTHTCPPCKCPAPNLLGGPSVFIFPPKIKDVLMISLSPIVTCVVVDVSEDDPDVQISWFVNNVEVHTAQTQTHREDYNSTLRVVSALPIQHQDWMSGKEFKCKVNNKDLPAPIERTISKPKGSVRAPQVYVLPPPEEEMTKKQVTLTCMVTDFMPEDIYVEWTNNGKTELNYKNTEPVLDSDGSYFMYSKLRVEKKNWVERNSYSCSVVHEGLHNHHTTKSFSRTPGK
notes: also called mutant-1 human BCMA-mouse Fc (17G-18G); mutant-1 BCMA protein
